Values belong to the binder of their own block, whether it stands above or below them.
Columns and labels:
[1] = target: T1, Core_NNNI-es_KKEE; experiment: two-hybrid library CCmax; conditions: mean of both orientations;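 note: natural log of median RNA to DNA barcode read ratio; higher means stronger binding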
T1 chain: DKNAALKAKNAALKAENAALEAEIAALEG

[2] = target: T2, Core_NINN-es_KKKK; experiment: two-hybrid library CCmax; conditions: mean of both orientations;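 note: natural log of median RNA to DNA barcode read ratio; higher means stronger binding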
T2 chain: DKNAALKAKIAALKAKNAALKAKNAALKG

[3] = target: T3, Core_INNN-es_KEEK; experiment: two-hybrid library CCmax; conditions: mean of both orientations;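 note: natural log of median RNA to DNA barcode read ratio; higher means stronger binding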
T3 chain: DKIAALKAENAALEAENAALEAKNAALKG

[4] = target: T4, P4; experiment: two-hybrid library CCmax; conditions: mean of both orientations;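 note: natural log of median RNA to DNA barcode read ratio; higher means stronger binding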
T4 chain: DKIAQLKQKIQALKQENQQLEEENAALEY

[5] = target: T5, P4S; experiment: two-hybrid library CCmax; conditions: mean of both orientations;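 note: natural log of median RNA to DNA barcode read ratio; higher means stronger binding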
T5 chain: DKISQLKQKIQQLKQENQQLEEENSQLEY

[6] = target: T6, 4H118-bN; experiment: two-hybrid library CCNG1;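 note: natural log of median RNA to DNA barcode read ratio; higher means stronger binding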
T6 chain: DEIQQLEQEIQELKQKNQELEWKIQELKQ

[7] = target: T7, 4H1710-bN; experiment: two-hybrid library CCNG1
T7 chain: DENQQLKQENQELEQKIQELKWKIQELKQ

[8] = target: T8, 4H2702-bN; experiment: two-hybrid library CCNG1
T8 chain: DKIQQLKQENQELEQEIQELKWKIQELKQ

[9] = target: T9, 4H1544-bN; experiment: two-hybrid library CCNG1
T9 chain: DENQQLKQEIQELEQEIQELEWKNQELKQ

[10] = target: T10, 4H754-bN; experiment: two-hybrid library CCNG1
T10 chain: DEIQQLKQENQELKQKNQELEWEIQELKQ

[11] = target: T11, 4H3364-bN; experiment: two-hybrid library CCNG1
T11 chain: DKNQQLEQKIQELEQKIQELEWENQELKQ

[12] = target: T12, 4H3175-bN; experiment: two-hybrid library CCNG1
T12 chain: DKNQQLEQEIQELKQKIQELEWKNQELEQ

[13] = target: T13, 4H1831-bN; experiment: two-hybrid library CCNG1
T13 chain: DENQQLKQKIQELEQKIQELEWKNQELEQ

[14] = target: T14, 4H968-bN; experiment: two-hybrid library CCNG1
T14 chain: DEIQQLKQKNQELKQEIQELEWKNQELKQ

[15] = target: T15, 4H3277-bN; experiment: two-hybrid library CCNG1
T15 chain: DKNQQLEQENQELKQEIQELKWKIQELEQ

[16] = target: T16, 4H3462-bN; experiment: two-hybrid library CCNG1
T16 chain: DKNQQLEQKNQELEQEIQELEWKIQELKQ

[17] = target: T17, 4H2627-bN; experiment: two-hybrid library CCNG1
T17 chain: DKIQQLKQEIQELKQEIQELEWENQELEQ

[18] = target: T18, 4H855-bN; experiment: two-hybrid library CCNG1
T18 chain: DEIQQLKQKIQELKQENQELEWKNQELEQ

[19] = target: T19, 4H170-bN; experiment: two-hybrid library CCNG1
T19 chain: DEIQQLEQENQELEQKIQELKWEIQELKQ

[20] = target: T20, 4H906-bN; experiment: two-hybrid library CCNG1
T20 chain: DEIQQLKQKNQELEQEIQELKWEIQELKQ

[21] = target: T21, 4H4073-bN; experiment: two-hybrid library CCNG1
T21 chain: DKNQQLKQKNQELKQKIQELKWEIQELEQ

[22] = target: T22, 4H1081-bN; experiment: two-hybrid library CCNG1; conditions: mean of both orientations
T22 chain: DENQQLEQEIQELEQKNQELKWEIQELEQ

[23] = target: T23, 4H3628-bN; experiment: two-hybrid library CCNG1
T23 chain: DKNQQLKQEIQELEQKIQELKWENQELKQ

[24] = target: T24, 4H780-bN; experiment: two-hybrid library CCNG1
T24 chain: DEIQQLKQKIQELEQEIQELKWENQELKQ

[25] = target: T25, 4H953-bN; experiment: two-hybrid library CCNG1
T25 chain: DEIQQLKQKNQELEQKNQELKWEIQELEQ

[26] = target: T26, 4H3112-bN; experiment: two-hybrid library CCNG1
T26 chain: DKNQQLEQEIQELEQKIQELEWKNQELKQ

[27] = target: T27, 4H1985-bN; experiment: two-hybrid library CCNG1
T27 chain: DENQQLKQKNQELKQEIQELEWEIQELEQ

[28] = target: T28, 4H797-bN; experiment: two-hybrid library CCNG1
T28 chain: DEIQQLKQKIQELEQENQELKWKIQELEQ

[29] = target: T29, 4H1348-bN; experiment: two-hybrid library CCNG1
T29 chain: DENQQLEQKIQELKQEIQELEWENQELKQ

[30] = target: T30, 4H626-bN; experiment: two-hybrid library CCNG1
T30 chain: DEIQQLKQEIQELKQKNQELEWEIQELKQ

[31] = target: T31, 4H346-bN; experiment: two-hybrid library CCNG1
T31 chain: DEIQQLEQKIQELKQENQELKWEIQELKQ

[32] = target: T32, 4H3427-bN; experiment: two-hybrid library CCNG1
T32 chain: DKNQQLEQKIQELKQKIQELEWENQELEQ

[33] = target: T33, 4H1158-bN; experiment: two-hybrid library CCNG1
T33 chain: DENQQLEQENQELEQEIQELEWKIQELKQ

[34] = target: T34, 4H2586-bN; experiment: two-hybrid library CCNG1
T34 chain: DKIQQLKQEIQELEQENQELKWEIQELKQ

[35] = target: T35, 4H457-bN; experiment: two-hybrid library CCNG1
T35 chain: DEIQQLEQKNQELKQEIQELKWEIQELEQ

[36] = target: T36, 4H575-bN; experiment: two-hybrid library CCNG1
T36 chain: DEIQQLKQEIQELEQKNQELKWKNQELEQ

[37] = target: T37, 4H683-bN; experiment: two-hybrid library CCNG1
T37 chain: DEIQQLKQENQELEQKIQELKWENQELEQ

[38] = target: T38, 4H3298-bN; experiment: two-hybrid library CCNG1
T38 chain: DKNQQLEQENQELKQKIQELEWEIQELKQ

[39] = target: T39, 4H1899-bN; experiment: two-hybrid library CCNG1
T39 chain: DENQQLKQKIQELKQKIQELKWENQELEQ

[40] = target: T40, 4H591-bN; experiment: two-hybrid library CCNG1
T40 chain: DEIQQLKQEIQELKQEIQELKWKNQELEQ

[41] = target: T41, 4H3926-bN; experiment: two-hybrid library CCNG1; conditions: mean of both orientations
T41 chain: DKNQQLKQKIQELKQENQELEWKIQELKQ

[42] = target: T42, 4H3497-bN; experiment: two-hybrid library CCNG1
T42 chain: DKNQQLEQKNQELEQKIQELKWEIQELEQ

[43] = target: T43, 4H2673-bN; experiment: two-hybrid library CCNG1
T43 chain: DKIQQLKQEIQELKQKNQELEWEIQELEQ

[44] = target: T44, 4H3010-bN; experiment: two-hybrid library CCNG1
T44 chain: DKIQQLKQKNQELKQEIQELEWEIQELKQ

[45] = target: T45, 4H112-bN; experiment: two-hybrid library CCNG1
T45 chain: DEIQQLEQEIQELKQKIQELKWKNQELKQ

[46] = target: T46, 4H3162-bN; experiment: two-hybrid library CCNG1
T46 chain: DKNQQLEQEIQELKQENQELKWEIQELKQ

[47] = target: T47, 4H1373-bN; experiment: two-hybrid library CCNG1
T47 chain: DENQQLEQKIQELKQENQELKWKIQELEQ

[48] = target: T48, 4H918-bN; experiment: two-hybrid library CCNG1
T48 chain: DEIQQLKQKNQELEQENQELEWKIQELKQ

[49] = target: T49, 4H3613-bN; experiment: two-hybrid library CCNG1
T49 chain: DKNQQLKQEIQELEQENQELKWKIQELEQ

[50] = target: T50, 4H3133-AA; experiment: two-hybrid library CCmax; conditions: mean of both orientations
T50 chain: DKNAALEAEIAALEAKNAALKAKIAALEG

[51] = target: T51, 4H3865-AA; experiment: two-hybrid library CCmax; conditions: mean of both orientations
T51 chain: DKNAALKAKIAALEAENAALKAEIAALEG

[52] = target: T52, 4H32-AA; experiment: two-hybrid library CCmax; conditions: mean of both orientations
T52 chain: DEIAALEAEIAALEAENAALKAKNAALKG

[53] = target: T53, 4H3718-AA; experiment: two-hybrid library CCmax; conditions: mean of both orientations
T53 chain: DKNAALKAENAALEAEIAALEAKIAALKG

[54] = target: T54, 4H3606-AA; experiment: two-hybrid library CCmax; conditions: mean of both orientations
T54 chain: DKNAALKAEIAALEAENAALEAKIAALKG

[55] = target: T55, 4H3590-AA; experiment: two-hybrid library CCmax
T55 chain: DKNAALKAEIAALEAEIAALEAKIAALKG

[56] = target: T56, 4H697-AA; experiment: two-hybrid library CCmax; conditions: mean of both orientations
T56 chain: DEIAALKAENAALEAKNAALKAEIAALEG

[57] = target: T57, 4H3413-AA; experiment: two-hybrid library CCmax; conditions: mean of both orientations
T57 chain: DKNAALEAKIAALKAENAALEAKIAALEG

[58] = target: T58, 4H384-AA; experiment: two-hybrid library CCmax; conditions: mean of both orientations
T58 chain: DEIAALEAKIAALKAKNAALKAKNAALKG

[59] = target: T59, 4H3588-AA; experiment: two-hybrid library CCmax; conditions: mean of both orientations
T59 chain: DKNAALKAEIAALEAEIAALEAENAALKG

[60] = target: T60, 4H3162-AA; experiment: two-hybrid library CCmax; conditions: mean of both orientations
T60 chain: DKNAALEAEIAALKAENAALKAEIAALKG

[61] = target: T61, 4H340-AA; experiment: two-hybrid library CCmax; conditions: mean of both orientations
T61 chain: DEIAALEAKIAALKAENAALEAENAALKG

[62] = target: T62, 4H3697-AA; experiment: two-hybrid library CCmax; conditions: mean of both orientations
T62 chain: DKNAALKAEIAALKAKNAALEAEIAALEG

[63] = target: T63, 4H3056-AA; experiment: two-hybrid library CCmax
T63 chain: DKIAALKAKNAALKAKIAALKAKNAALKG

[64] = target: T64, 4H3631-AA; experiment: two-hybrid library CCmax; conditions: mean of both orientations
T64 chain: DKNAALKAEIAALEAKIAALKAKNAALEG

[65] = target: T65, 4H3378-AA; experiment: two-hybrid library CCmax; conditions: mean of both orientations
T65 chain: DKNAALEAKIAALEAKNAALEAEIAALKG

[66] = target: T66, 4H982-AA; experiment: two-hybrid library CCmax; conditions: mean of both orientations
T66 chain: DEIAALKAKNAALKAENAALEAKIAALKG

[67] = target: T67, Core_ININ-es_EEEE; experiment: two-hybrid library CCmax; conditions: mean of both orientations
T67 chain: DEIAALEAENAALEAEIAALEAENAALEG

[68] = target: T68, Core_IIII-es_KEKE; experiment: two-hybrid library CCmax; conditions: mean of both orientations
T68 chain: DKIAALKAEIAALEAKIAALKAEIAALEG

interaction score [1]: 2.38
Binder: DENAALEAENAALEAKNAALKAKIAALKG [Core_NNNI-es_EEKK]

interaction score [2]: 2
Binder: DENAALEAEIAALEAENAALEAENAALEG [Core_NINN-es_EEEE]

interaction score [3]: 1.91
Binder: DEIAALEAKNAALKAKNAALKAENAALEG [Core_INNN-es_EKKE]

interaction score [4]: 0.472
interaction score [5]: 0.00696
Binder: DEIQQLEEEISQLEQKNSQLKEKNQQLKY [P3S]

interaction score [6]: -0.492
interaction score [7]: -2
interaction score [8]: 0.0755
interaction score [9]: -1.22
interaction score [10]: -0.498
interaction score [11]: 0.163
interaction score [12]: -0.589
interaction score [13]: -0.661
interaction score [14]: -1.97
interaction score [15]: -2.73
interaction score [16]: -0.385
interaction score [17]: -0.602
interaction score [18]: -1.78
interaction score [19]: -1.72
interaction score [20]: -1.43
interaction score [21]: -0.961
interaction score [22]: -0.711
interaction score [23]: -0.745
interaction score [24]: -1.12
interaction score [25]: -0.906
interaction score [26]: -0.643
interaction score [27]: -1.65
interaction score [28]: -0.855
interaction score [29]: -1.49
interaction score [30]: -1.12
interaction score [31]: -0.916
interaction score [32]: -0.819
interaction score [33]: -1.04
interaction score [34]: -0.764
interaction score [35]: -0.831
interaction score [36]: -1.36
interaction score [37]: -0.818
interaction score [38]: -1.1
interaction score [39]: -0.693
interaction score [40]: -1
interaction score [41]: 1.86
interaction score [42]: -0.836
interaction score [43]: -0.316
interaction score [44]: -0.379
interaction score [45]: -0.856
interaction score [46]: -1.74
interaction score [47]: -1.6
interaction score [48]: -1.87
interaction score [49]: -1.17
Binder: DENQQLEQEIQELEQKNQELKWEIQELEQ [4H1081-bN]

interaction score [50]: -0.786
interaction score [51]: 0.0241
interaction score [52]: -1.08
interaction score [53]: -0.69
interaction score [54]: 0.58
interaction score [55]: -0.167
interaction score [56]: -1.44
interaction score [57]: -0.103
interaction score [58]: -1.93
interaction score [59]: -0.439
interaction score [60]: -1.58
interaction score [61]: -1.52
interaction score [62]: -0.53
interaction score [63]: -1.79
interaction score [64]: -1.74
interaction score [65]: -1.09
interaction score [66]: -1.65
interaction score [67]: 1.52
Binder: DKIAALKAKNAALKAKIAALKAKNAALKG [4H3056-AA]

interaction score [68]: 1.11
Binder: DEIAALEAKIAALKAEIAALEAKIAALKG [Core_IIII-es_EKEK]
